Reference: the supplement of paper PMC11246515
± gives the standard deviation of the averaged measurements.

Test: total protein half-life in vivo (active degradation + dilution); higher = more stable protein
[1] = E. coli NCM3722 delta-clpP delta-lon delta-hslV, growth: N-lim chemostat, doubling time 6 h
[2] = E. coli NCM3722 delta-clpP, growth: N-lim chemostat, doubling time 6 h
[3] = E. coli NCM3722 delta-hslV, growth: N-lim chemostat, doubling time 6 h
[4] = E. coli NCM3722 delta-smpB, growth: N-lim chemostat, doubling time 6 h
[5] = wild type E. coli NCM3722, growth: C-lim chemostat, doubling time 3 h
[6] = wild type E. coli NCM3722, growth: C-lim chemostat, doubling time 12 h
[7] = wild type E. coli NCM3722, growth: N-lim chemostat, doubling time 6 h
[8] = wild type E. coli NCM3722, growth: N-lim chemostat, doubling time 12 h
[9] = wild type E. coli NCM3722, growth: P-lim chemostat, doubling time 12 h
[10] = E. coli NCM3722 delta-lon, growth: N-lim chemostat, doubling time 6 h
[11] = wild type E. coli NCM3722, growth: C-lim chemostat, doubling time 6 h
[12] = wild type E. coli NCM3722, growth: P-lim chemostat, doubling time 6 h

| Sequence | total protein half-life in vivo [1] [h] | total protein half-life in vivo [2] [h] | total protein half-life in vivo [3] [h] | total protein half-life in vivo [4] [h] | total protein half-life in vivo [5] [h] | total protein half-life in vivo [6] [h] | total protein half-life in vivo [7] [h] | total protein half-life in vivo [8] [h] | total protein half-life in vivo [9] [h] | total protein half-life in vivo [10] [h] | total protein half-life in vivo [11] [h] | total protein half-life in vivo [12] [h] |
| --- | --- | --- | --- | --- | --- | --- | --- | --- | --- | --- | --- | --- |
| MFPFRRNVLAFAALLALSSPVLAGKLAIVIDDFGYRPHNENQVLAMPSAISVAVLPDSPHAREMATKAHNSGHEVLIHLPMAPLSKQPLEKNTLRPEMSSDEIERIIRSAVNNVPYAVGINNHMGSKMTSNLFGMQKVMQALERYNLYFLDSVTIGNTQAMRAAQGTGVKVIKRKVFLDDSQNEADIRVQFNRAIDLARRNGSTIAIGHPHPATVRVLQQMVYNLPPDITLVKASSLLNEPQVDTSTPPKNAVPDAPRNPFRGVKLCKPKKPIEPVYANRFFEVLSESISQSTLIVYFQHQWQGWGKQPEAAKFNASAN | 5.42 ± 0.15 | 6.23 | 6.09 ± 0.91 | 4.79 | 3.38 | 11.2 ± 1.3 | 6.68 ± 0.97 | 9.34 | 8.02 | – | – | – |
| MAEWSGEYISPYAEHGKKSEQVKKITVSIPLKVLKILTDERTRRQVNNLRHATNSELLCEAFLHAFTGQPLPDDADLRKERSDEIPEAAKEIMREMGINPETWEY [P0A8U6] | > 8 | 5.7 | 5.96 ± 0.098 | 6.26 ± 0.61 | 3.19 ± 0.061 | 6.09 | 4.87 ± 0.35 | 10.7 ± 6.7 | 12 ± 4.2 | 6.2 ± 0.13 | 5.63 ± 0.29 | 4.35 ± 0.99 |
| MPTKMRTTRNLLLMATLLGSALFARAAEKEMTIGAIYLDTQGYYAGVRQGVQDAAKDSSVQVQLIETNAQGDISKESTFVDTLVARNVDAIILSAVSENGSSRTVRRASEAGIPVICYNTCINQKGVDKYVSAYLVGDPLEFGKKLGNAAADYFIANKIDQPKIAVINCEAFEVCVQRRKGFEEVLKSRVPGAQIVANQEGTVLDKAISVGEKLIISTPDLNAIMGESGGATLGAVKAVRNQNQAGKIAVFGSDMTTEIAQELENNQVLKAVVDISGKKMGNAVFAQTLKVINKQADGEKVIQVPIDLYTKTEDGKQWLATHVDGLP | – | – | – | 5.48 ± 2.3 | 3.51 ± 0.069 | 10.2 ± 0.31 | – | – | 13.19 ± 0.1 | > 8 | 6.18 ± 0.59 | > 8 |
| MSQKTLFTKSALAVAVALISTQAWSAGFQLNEFSSSGLGRAYSGEGAIADDAGNVSRNPALITMFDRPTFSAGAVYIDPDVNISGTSPSGRSLKADNIAPTAWVPNMHFVAPINDQFGWGASITSNYGLATEFNDTYAGGSVGGTTDLETMNLNLSGAYRLNNAWSFGLGFNAVYARAKIERFAGDLGQLVAGQIMQSPAGQTQQGQALAATANGIDSNTKIAHLNGNQWGFGWNAGILYELDKNNRYALTYRSEVKIDFKGNYSSDLNRAFNNYGLPIPTATGGATQSGYLTLNLPEMWEVSGYNRVDPQWAIHYSLAYTSWSQFQQLKATSTSGDTLFQKHEGFKDAYRIALGTTYYYDDNWTFRTGIAFDDSPVPAQNRSISIPDQDRFWLSAGTTYAFNKDASVDVGVSYMHGQSVKINEGPYQFESEGKAWLFGTNFNYAF | 6.74 ± 1.8 | – | – | 5.52 ± 0.67 | 3.2 ± 0.064 | 10.9 ± 0.23 | 6.3 ± 0.37 | 11.1 ± 0.23 | 12.2 ± 1.2 | – | 6.165 ± 0.014 | 6.09 ± 0.34 |
| MENNRNFPARQFHSLTFFAGLCIGITPVAQALAAEGQTNADDTLVVEASTPSLYAPQQSADPKFSRPVADTTRTMTVISEQVIKDQGATNLTDALKNVPGVGAFFAGENGNSTTGDAIYMRGADTSNSIYIDGIRDIGSVSRDTFNTEQVEVIKGPSGTDYGRSAPTGSINMISKQPRNDSGIDASASIGSAWFRRGTLDVNQVIGDTTAVRLNVMGEKTHDAGRDKVKNERYGVAPSVAFGLGTANRLYLNYLHVTQHNTPDGGIPTIGLPGYSAPSAGTAALNHSGKVDTHNFYGTDSDYDDSTTDTATMRFEHDINDNTTIRNTTRWSRVKQDYLMTAIMGGASNITQPTSDVNSWTWSRTANTKDVSNKILTNQTNLTSTFYTGSIGHDVSTGVEFTRETQTNYGVNPVTLPAVNIYHPDSSIHPGGLTRNGANANGQTDTFAIYAFDTLQITRDFELNGGIRLDNYHTEYDSATACGGSGRGAITCPTGVAKGSPVTTVDTAKSGNLMNWKAGALYHLTENGNVYINYAVSQQPPGGNNFALAQSGSGNSANRTDFKPQKANTSEIGTKWQVLDKRLLLTAALFRTDIENEVEQNDDGTYSQYGKKRVEGYEISVAGNITPAWQVIGGYTQQKATIKNGKDVAQDGSSSLPYTPEHAFTLWSQYQATDDISVGAGARYIGSMHKGSDGAVGTPAFTEGYWVADAKLGYRVNRNLDFQLNVYNLFDTDYVASINKSGYRYHPGEPRTFLLTANMHF | – | – | – | – | 3.14 ± 0.17 | > 16 | > 8 | > 16 | – | – | – | – |
